Series [1] in a line: Single fiber tensile strength and bleaching start after two-step enzymatic application. The conditions noted are these: two-step with buffer rinse. As for the experimental part:
Hair samples were cut into pieces 4-inches in length. The denier number (liner mass density) of each hair fiber was measured by Textechno Vibromat Instrument (Textechno Herbert Stein GmbH & Co. KG; Germany). The hair fibers were tested according to ASTM D 3822-01 (“Tensile Properties of Single Textile Fibers”; ASTM International, West Conshohocken, Pa., 2001), on an Instron testing system (Instron Model 1122 Tester; Instron, Mass.) at about 70° F. (approximately 21° C.) and 65% relative humidity. The treated area of the hair sample was placed in the middle of the gauge and both ends were gripped on the test heads. Both fiber ends were attached on a piece of tape, respectively, for easy handling and gripping on the test heads. The test used 2-inch (5.1 cm) gauge length, […], and 1.2 inch/min (3 cm/min) pulling rate. The force-strain curve of the fiber was recorded during the test. The tenacity at maximum (gf/den) was calculated by dividing maximum force (gf) by denier number (den). Note that (gf/den)/11.33=Newtons/tex (N/tex).
In a two-step application, the hair strands are first treated with perhydrolase solutions to allow the enzyme to bind hair. The hair strands are then dried or rinsed with buffer and dried. The rinse step is intended to remove excess unbound enzyme from the hair. The hair strands are soaked in triacetin and H2O2 solutions. The application is repeated for multiple times.
One experiment was carried out with C277S-HC263 and untargeted T. maritima variant C277S using the following protocol: • 1. Enzyme solutions comprising 0.5 mg/mL enzyme in 50 mM phosphate buffer (pH 8) were made with or without 10 wt % urea. • 2. Seven (7) hair strands were soaked in 0.2 mL of an enzyme solution for 10 min and then dried under N2 without prior rinsing. • 3. The hair strands were then soaked in 0.2 mL of a pH 8 solution containing 100-mM triacetin and 250-mM H2O2 for 15 min, dried, then rinsed with DI water and then dried again. • 4. Steps 2-3 were repeated up to 15 times.
Another experiment was carried out with C277S-HC263 (SEQ ID NO: 288), CPAH-HC263 (SEQ ID NO: 294), CPAH-HC1010 (SEQ ID NO: 295) and untargeted C277S using the following protocol: • 1. Enzyme solutions comprising 1.0 mg/mL enzyme in 50 mM phosphate buffer (pH 6) were prepared. For solutions containing two enzymes, the concentration of each enzyme was approximately 0.5 mg/mL. • 2. Seven (7) hair strands were soaked in 0.2 mL of an enzyme solution for 10 min, rinsed with 50 mM phosphate buffer (pH 6), and then dried under N2. • 3. The dried hair strands were then soaked into 0.2 mL of 50 mM phosphate buffer solution (pH 8) comprising 100 mM triacetin and 250 mM H2O2 for 15 min, dried, then rinsed with DI water and then dried again. • 4.

Series [2] in a line: Impact of additives on perhydrolase activity, PAA indicator strip. The series is classed as biochemical. The conditions noted are these: glycerin, ethanol, sorbitol, polyethylene glycol or propylene glycol additive. As for the experimental part:
A peracetic acid indicator strip with detection range from 75 to 400 ppm was used to study the impact of additives on the perhydrolase activity of a perhydrolase. When the PAA concentration is at least 0.2 wt %, the dark color generated on the indicator strip will turn back to original white color over time.
A first solution (“solution A”) was prepared using 50 mM phosphate buffer (pH 8) and 10 wt % of one of the following additives: glycerin, ethanol, sorbitol, polyethylene glycol, propylene glycol in, respectively.
A second solution (“solution B”) was prepared by mixing 30% H2O2 and 50 mM phosphate buffer (pH 8) whereby the final concentration of H2O2 was 500 mM.
A third solution (“solution C”) was prepared comprising of CPAH-HC1010 (SEQ ID NO: 295) (0.2 mg/mL), triacetin (200 mM), 50 mM phosphate buffer (pH 8), and solution A (5 wt % additive). Immediately, added solution B in a 1:1 volume ratio. After 1 to 5 min, a 30-μL sample of the resulting solution was removed and immediately placed on a PAA indicator strip.
This process was repeated for each of the additives listed above.

B1: CPAH-HC1010: fusion peptide C277S-HC1010 further comprising a D128G substitution (protein)
chain: MAFFDLPLEELKKYRPERYEEKDFDEFWEETLAESEKFPLDPVFERMESHLKTVEAYDVTFSGYRGQRIKGWLLVPKLEEEKLPCVVQYIGYNGGRGFPHDWLFWPSMGYICFVMDTRGQGSGWLKGGTPDYPEGPVDPQYPGFMTRGILDPRTYYYRRVFTDAVRAVEAAASFPQVDQERIVIAGGSQGGGIALAVSALSKKAKALLCDVPFLCHFRRAVQLVDTHPYAEITNFLKTHRDKEEIVFRTLSYFDGVNFAARAKIPALFSVGLMDNISPPSTVFAAYNYYAGPKEIRIYPYNNHEGGGSFQAVEQVKFLKKLFEKGGPGSGGAGSPGSAGGPGSAQSQLPDKHSGLHERAPQRYGSGTAEIQSSKNPNPHPQRSWTNGSGHNHMQERYTDPQHSPSVNGLGSGHDHKNQKETHQRHAASSHHHHHH
For the molecule B1, the “Bleaching Start” value in series [1] (1.0 mg/mL enzyme pH 6) is 12th. Also, the “Tenacity @ max” value in series [1] (1.0 mg/mL enzyme pH 6, 100 mM triacetin, 250 mM H2O2, up to 13 repeats) came out at 1.2 gf/den. Besides, in series [2], the “perhydrolase activity (PAA by indicator strip) in presence of additives” value is reported as at least 2000 ppm.

For the origin of these results see patent US20130171217A1, “ENZYMATIC PERACID GENERATION FOR USE IN SKIN CARE PRODUCTS” (E I DU PONT DE NEMOURS AND COMPANY, priority 2010, published 2013).
